For 21 substances, amyloid nucleation score results are on record in the supplement of paper PMC12042874.

± gives the uncertainty stated by the source.

The series in a line: amyloid nucleation score (Sup35N fusion, yeast selection) (log enrichment); library NNK1; higher = more nucleation; inactive = no reads after selection. The method, boiled down:
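Yeast lacking psi expressed peptides of 20 random codons fused to Sup35N, received 100 μM copper sulfate for 24 hours, and were then grown for 7 days at 30°C on medium lacking adenine and uracil. Illumina sequencing of input and output plasmid inserts provided the reads. Nucleation scores are DiMSum log enrichments of output over input, centred on the mode of non-aggregating sequences. Any sequence with under 100 input reads was excluded.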

The substance MIWPDGQRLMRPTLRMYKTS registered an amyloid nucleation score of 0.279 ± 0.36.
Take KSQGEVFRVAREGNFIIEES: the amyloid nucleation score is -1.07 ± 1.2.
Consider SLPVLCASRYHLHYRMGFSG, for which the amyloid nucleation score was found to be 1 ± 0.69.
In turn, VERLAT came in with an amyloid nucleation score of -0.259 ± 0.73.
For QSVCSTCSRGPSHCAAGSV, the amyloid nucleation score came to 0.17 ± 0.31.
The substance VGYEVLSHYDAGIVSLVYLS yielded an amyloid nucleation score of 0.645 ± 0.53.
As to KRPSSFVEFFMLWRSKAR, the amyloid nucleation score was found to be 0.947 ± 0.43.
RSFVSEGYFGCWDRDTDYTD showed an amyloid nucleation score of -0.894 ± 1.2.
Turning to SLDEVARVLCP, the amyloid nucleation score is -0.21 ± 0.58.
LVWILHVSSVNNHVDWGMLE registered an amyloid nucleation score of -1.64 ± 2.4.
In the case of VHFQYFLMLKLAQFVVVWNK it was 0.669 ± 0.84.
Then FWLFSGLCNRFNTGYDFLKS, with 1.12 ± 0.48; and CSRTMTWYP, with -1.14 ± 1.3.
Regarding WSPNNTISNGMTKVWASGRL, the amyloid nucleation score was determined as 0.78 ± 0.56.
IYASSLTDGFTVVWCLNQY: the amyloid nucleation score is 5.05 ± 0.07.
Turning to GCLFICSMRELYKSASSTMR, the amyloid nucleation score worked out at 0.141 ± 0.48.
With LLRVAFLKRYFSTIFCVLLR, the amyloid nucleation score was -0.716 ± 0.53.
The substance SRTVFGCEDIRERRWVFWEI came in with an amyloid nucleation score of 0.647 ± 0.69.
LSVSFDVDVMVMIQVNCAIH: the amyloid nucleation score amounted to 0.105 ± 0.39.
Take TWVMFDVWGRVDYER: the amyloid nucleation score is 0.169 ± 0.4.
Then EPCVGNSNSCCVHC, with -0.072 ± 0.53.
